Literature values as cited in article PMC12411175.
pKd: −log10 of the molar value.

Target: insulin receptor (Homo sapiens) (UniProt P06213)
Sequence of UniProt P06213 (P06213 763-1382): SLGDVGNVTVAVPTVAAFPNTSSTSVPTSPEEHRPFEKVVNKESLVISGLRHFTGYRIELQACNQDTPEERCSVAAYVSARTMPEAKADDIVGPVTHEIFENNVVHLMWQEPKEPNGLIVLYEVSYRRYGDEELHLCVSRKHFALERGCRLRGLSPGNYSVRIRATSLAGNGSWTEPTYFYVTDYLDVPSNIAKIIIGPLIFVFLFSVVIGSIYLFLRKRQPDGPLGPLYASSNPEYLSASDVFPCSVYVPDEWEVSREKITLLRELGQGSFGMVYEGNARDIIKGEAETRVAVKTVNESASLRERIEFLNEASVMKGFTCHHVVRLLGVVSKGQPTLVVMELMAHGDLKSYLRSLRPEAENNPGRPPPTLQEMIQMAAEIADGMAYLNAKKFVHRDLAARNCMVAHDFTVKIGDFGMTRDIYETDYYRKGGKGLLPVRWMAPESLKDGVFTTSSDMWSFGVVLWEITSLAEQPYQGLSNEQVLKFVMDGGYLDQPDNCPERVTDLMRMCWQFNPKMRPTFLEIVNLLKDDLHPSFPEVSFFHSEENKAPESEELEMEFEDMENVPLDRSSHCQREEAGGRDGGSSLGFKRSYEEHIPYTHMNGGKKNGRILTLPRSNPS

Sequence of insulin (P01308 90-110): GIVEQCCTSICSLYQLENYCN

- pKd: 10.70
Substance: insulin (from UniProt P01308)
